Experimental data as given in PMC8228192, “Parallel and Sequential Pathways of Molecular Recognition of a Tandem-Repeat Protein and Its Intrinsically Disordered Binding Partner” (Biomolecules, 2021).
No end group written: not given here.

Assays:
Settings in all cases: both partners purified
[1] = molecular target: T1, ARM repeat domain of human β-catenin (residues 134–671) (human, UniProt P35222 134-671); assay: ITC; β-catenin 2–4 µM in the cell, TCF7L2 18–40 µM in the syringe; PBS, 1 mM DTT, 30 °C; one-site binding fit
T1 construct: β-catenin, human, ARM repeat domain, residues 134–671; Plasmid was a gift from W.I. Weis; source: E. coli C41, purified (glutathione-Sepharose 4B, thrombin cleavage on resin, Mono-Q)
T1 sequence (looked up): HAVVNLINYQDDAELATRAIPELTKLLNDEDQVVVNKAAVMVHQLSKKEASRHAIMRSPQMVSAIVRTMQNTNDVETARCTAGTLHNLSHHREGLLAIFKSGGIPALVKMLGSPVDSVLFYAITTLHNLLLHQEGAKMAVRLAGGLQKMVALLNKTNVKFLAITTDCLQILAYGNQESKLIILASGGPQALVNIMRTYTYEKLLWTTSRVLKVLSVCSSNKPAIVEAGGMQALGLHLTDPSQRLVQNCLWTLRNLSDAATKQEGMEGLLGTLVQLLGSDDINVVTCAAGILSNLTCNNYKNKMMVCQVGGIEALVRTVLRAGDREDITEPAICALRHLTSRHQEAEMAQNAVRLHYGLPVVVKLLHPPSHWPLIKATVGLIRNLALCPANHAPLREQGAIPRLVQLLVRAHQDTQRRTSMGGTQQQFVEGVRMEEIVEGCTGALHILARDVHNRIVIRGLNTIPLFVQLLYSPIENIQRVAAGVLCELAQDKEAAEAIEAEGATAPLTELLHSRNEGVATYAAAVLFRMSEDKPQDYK

[2] = molecular target: T1, ARM repeat domain of human β-catenin …; assay: fluorescence spectroscopy kinetics (dissociation, fluorimeter); pre-formed 1:1 complex of labelled TCF7L2 and β-catenin mixed 1:1 with 50-times molar excess of unlabelled TCF7L2; PBS, 1 mM DTT, 15 °C; fitted to sums of exponential phases
[3] = molecular target: T1, ARM repeat domain of human β-catenin …; assay: stopped-flow fluorescence kinetics (association); 10 nM fluorescein-labelled TCF7L2 mixed 1:1 with 100–1000 nM unlabelled β-catenin, pseudo-first-order; PBS, 1 mM DTT, 15 °C; kon from the linear fit of kobs against β-catenin concentration
[4] = molecular target: T1, ARM repeat domain of human β-catenin …; assay: stopped-flow fluorescence kinetics (dissociation); pre-formed 1:1 complex (200 nM) of labelled TCF7L2 and β-catenin mixed 1:1 with 50-times molar excess of unlabelled TCF7L2 (10 µM); PBS, 1 mM DTT, 15 °C; fitted to sums of exponential phases

Binder | binding result [1] | koff,major (major slow phase of biphasic dissociation) [2] [s⁻¹] | koff,minor (minor fast phase of biphasic dissociation) [2] [s⁻¹] | kon [3] [M⁻¹ s⁻¹] | koff,major (major slow phase of biphasic dissociation) [4] [s⁻¹] | koff,minor (minor fast phase of biphasic dissociation) [4] [s⁻¹]
TCF7L2 (1–54), wild type, unlabelled (domain or fragment, UniProt Q9NQB0 1-54, looked up, also called wild-type TCF7L2 (1–54); source: E. coli C41, purified (Ni-NTA, thrombin cleavage, Superdex 75)) MPQLNGGGGDDLGANDELISFKDEGEQEEKSSENSSAERDLADVKSSLVNESET | binds | – | – | – | – | –
TCF7L2 (1–54) S31C D23A E24A E26A E28A E29A (5X), fluorescein-labelled (domain or fragment, UniProt Q9NQB0 1-54, looked up, One extra serine is left behind after thrombin cleavage of the tag; also called quintuple mutant; 5X variant; source: E. coli C41, purified (Ni-NTA, thrombin cleavage, Superdex 75), labelled with fluorescein maleimide) MPQLNGGGGDDLGANDELISFKAAGAQAAKC(fluorescein maleimide)SENSSAERDLADVKSSLVNESET | – | 0.000295 ± 0.23 | 0.00234 ± 0.33 | 4.26e+07 ± 0.17 | – | –
TCF7L2 (1–54) S31C D23A, fluorescein-labelled (domain or fragment, UniProt Q9NQB0 1-54, looked up, One extra serine is left behind after thrombin cleavage of the tag; source: E. coli C41, purified (Ni-NTA, thrombin cleavage, Superdex 75), labelled with fluorescein maleimide) MPQLNGGGGDDLGANDELISFKAEGEQEEKC(fluorescein maleimide)SENSSAERDLADVKSSLVNESET | – | 0.0003 ± 0.16 | 0.00239 ± 0.7 | 5.31e+07 ± 0.25 | – | –
TCF7L2 (1–54) S31C E17A, fluorescein-labelled (domain or fragment, UniProt Q9NQB0 1-54, looked up, One extra serine is left behind after thrombin cleavage of the tag; source: E. coli C41, purified (Ni-NTA, thrombin cleavage, Superdex 75), labelled with fluorescein maleimide) MPQLNGGGGDDLGANDALISFKDEGEQEEKC(fluorescein maleimide)SENSSAERDLADVKSSLVNESET | – | 0.00891 ± 2.9 | 0.0283 ± 1.9 | 6.3e+07 ± 0.42 | – | –
TCF7L2 (1–54) S31C E24A E29A, fluorescein-labelled (domain or fragment, UniProt Q9NQB0 1-54, looked up, One extra serine is left behind after thrombin cleavage of the tag; also called double mutant; source: E. coli C41, purified (Ni-NTA, thrombin cleavage, Superdex 75), labelled with fluorescein maleimide) MPQLNGGGGDDLGANDELISFKDAGEQEAKC(fluorescein maleimide)SENSSAERDLADVKSSLVNESET | – | 0.000425 ± 0.29 | 0.00173 ± 0.14 | 6.13e+07 ± 0.34 | – | –
TCF7L2 (1–54) S31C E24A, fluorescein-labelled (domain or fragment, UniProt Q9NQB0 1-54, looked up, One extra serine is left behind after thrombin cleavage of the tag; source: E. coli C41, purified (Ni-NTA, thrombin cleavage, Superdex 75), labelled with fluorescein maleimide) MPQLNGGGGDDLGANDELISFKDAGEQEEKC(fluorescein maleimide)SENSSAERDLADVKSSLVNESET | – | 0.000503 ± 0.4 | 0.00153 ± 0.21 | 6.05e+07 ± 0.12 | – | –
TCF7L2 (1–54) S31C E26A, fluorescein-labelled (domain or fragment, UniProt Q9NQB0 1-54, looked up, One extra serine is left behind after thrombin cleavage of the tag; source: E. coli C41, purified (Ni-NTA, thrombin cleavage, Superdex 75), labelled with fluorescein maleimide) MPQLNGGGGDDLGANDELISFKDEGAQEEKC(fluorescein maleimide)SENSSAERDLADVKSSLVNESET | – | 0.000474 ± 0.3 | 0.00166 ± 0.16 | 5.59e+07 ± 0.22 | – | –
TCF7L2 (1–54) S31C E28A, fluorescein-labelled (domain or fragment, UniProt Q9NQB0 1-54, looked up, One extra serine is left behind after thrombin cleavage of the tag; source: E. coli C41, purified (Ni-NTA, thrombin cleavage, Superdex 75), labelled with fluorescein maleimide) MPQLNGGGGDDLGANDELISFKDEGEQAEKC(fluorescein maleimide)SENSSAERDLADVKSSLVNESET | – | 0.000496 ± 0.35 | 0.00116 ± 0.28 | 5.84e+07 ± 0.35 | – | –
TCF7L2 (1–54) S31C E29A, fluorescein-labelled (domain or fragment, UniProt Q9NQB0 1-54, looked up, One extra serine is left behind after thrombin cleavage of the tag; source: E. coli C41, purified (Ni-NTA, thrombin cleavage, Superdex 75), labelled with fluorescein maleimide) MPQLNGGGGDDLGANDELISFKDEGEQEAKC(fluorescein maleimide)SENSSAERDLADVKSSLVNESET | – | 0.000897 ± 0.44 | 0.00245 ± 0.21 | 5.73e+07 ± 0.43 | – | –
TCF7L2 (1–54) S31C E38A, fluorescein-labelled (domain or fragment, UniProt Q9NQB0 1-54, looked up, One extra serine is left behind after thrombin cleavage of the tag; source: E. coli C41, purified (Ni-NTA, thrombin cleavage, Superdex 75), labelled with fluorescein maleimide) MPQLNGGGGDDLGANDELISFKDEGEQEEKC(fluorescein maleimide)SENSSAARDLADVKSSLVNESET | – | 0.000539 ± 0.5 | 0.00261 ± 0.28 | 6.2e+07 ± 0.19 | – | –
TCF7L2 (1–54) S31C F21A, fluorescein-labelled (domain or fragment, UniProt Q9NQB0 1-54, looked up, One extra serine is left behind after thrombin cleavage of the tag; source: E. coli C41, purified (Ni-NTA, thrombin cleavage, Superdex 75), labelled with fluorescein maleimide) MPQLNGGGGDDLGANDELISAKDEGEQEEKC(fluorescein maleimide)SENSSAERDLADVKSSLVNESET | – | – | – | 4.82e+07 ± 0.17 | 0.0258 ± 2 | 0.423 ± 15
TCF7L2 (1–54) S31C I19A, fluorescein-labelled (domain or fragment, UniProt Q9NQB0 1-54, looked up, One extra serine is left behind after thrombin cleavage of the tag; also called TCF7L2 I19A; source: E. coli C41, purified (Ni-NTA, thrombin cleavage, Superdex 75), labelled with fluorescein maleimide) MPQLNGGGGDDLGANDELASFKDEGEQEEKC(fluorescein maleimide)SENSSAERDLADVKSSLVNESET | – | – | – | 7.04e+07 ± 0.52 | 0.011 ± 0.5 | 0.207 ± 10
TCF7L2 (1–54) S31C K45A, fluorescein-labelled (domain or fragment, UniProt Q9NQB0 1-54, looked up, One extra serine is left behind after thrombin cleavage of the tag; source: E. coli C41, purified (Ni-NTA, thrombin cleavage, Superdex 75), labelled with fluorescein maleimide) MPQLNGGGGDDLGANDELISFKDEGEQEEKC(fluorescein maleimide)SENSSAERDLADVASSLVNESET | – | 0.00219 ± 0.4 | 0.015 ± 1.3 | 1.031e+08 ± 0.19 | – | –
TCF7L2 (1–54) S31C L12A, fluorescein-labelled (domain or fragment, UniProt Q9NQB0 1-54, looked up, One extra serine is left behind after thrombin cleavage of the tag; source: E. coli C41, purified (Ni-NTA, thrombin cleavage, Superdex 75), labelled with fluorescein maleimide) MPQLNGGGGDDAGANDELISFKDEGEQEEKC(fluorescein maleimide)SENSSAERDLADVKSSLVNESET | – | 0.000977 ± 0.75 | 0.00264 ± 0.2 | 7.19e+07 ± 0.13 | – | –
TCF7L2 (1–54) S31C L41A, fluorescein-labelled (domain or fragment, UniProt Q9NQB0 1-54, looked up, One extra serine is left behind after thrombin cleavage of the tag; source: E. coli C41, purified (Ni-NTA, thrombin cleavage, Superdex 75), labelled with fluorescein maleimide) MPQLNGGGGDDLGANDELISFKDEGEQEEKC(fluorescein maleimide)SENSSAERDAADVKSSLVNESET | – | – | – | 5.95e+07 ± 0.24 | 0.0993 ± 17 | 0.616 ± 111
TCF7L2 (1–54) S31C L48A, fluorescein-labelled (domain or fragment, UniProt Q9NQB0 1-54, looked up, One extra serine is left behind after thrombin cleavage of the tag; source: E. coli C41, purified (Ni-NTA, thrombin cleavage, Superdex 75), labelled with fluorescein maleimide) MPQLNGGGGDDLGANDELISFKDEGEQEEKC(fluorescein maleimide)SENSSAERDLADVKSSAVNESET | – | 0.00132 ± 0.1 | 0.00424 ± 0.13 | 5.67e+07 ± 0.6 | – | –
TCF7L2 (1–54) S31C N15A, fluorescein-labelled (domain or fragment, UniProt Q9NQB0 1-54, looked up, One extra serine is left behind after thrombin cleavage of the tag; source: E. coli C41, purified (Ni-NTA, thrombin cleavage, Superdex 75), labelled with fluorescein maleimide) MPQLNGGGGDDLGAADELISFKDEGEQEEKC(fluorescein maleimide)SENSSAERDLADVKSSLVNESET | – | 0.000442 ± 0.15 | 0.00365 ± 0.83 | 6.25e+07 ± 0.23 | – | –
TCF7L2 (1–54) S31C V44A, fluorescein-labelled (domain or fragment, UniProt Q9NQB0 1-54, looked up, One extra serine is left behind after thrombin cleavage of the tag; source: E. coli C41, purified (Ni-NTA, thrombin cleavage, Superdex 75), labelled with fluorescein maleimide) MPQLNGGGGDDLGANDELISFKDEGEQEEKC(fluorescein maleimide)SENSSAERDLADAKSSLVNESET | – | – | – | 5.05e+07 ± 0.46 | 0.0742 ± 8 | 0.498 ± 70
TCF7L2 (1–54) S31C, labelled with fluorescein maleimide at Cys31 (domain or fragment, UniProt Q9NQB0 1-54, looked up, One extra serine is left behind after thrombin cleavage of the tag; also called fluorescein-labelled WT; fluorescent-labelled WT TCF7L2 (1–54); source: E. coli C41, purified (Ni-NTA, thrombin cleavage, Superdex 75), labelled with fluorescein maleimide) MPQLNGGGGDDLGANDELISFKDEGEQEEKC(fluorescein maleimide)SENSSAERDLADVKSSLVNESET | – | 0.000573 ± 0.4 | 0.00152 ± 0.28 | 7.33e+07 ± 0.14 | – | –
TCF7L2 (1–54) S31C, unlabelled (domain or fragment, UniProt Q9NQB0 1-54, looked up, One extra serine is left behind after thrombin cleavage of the tag; also called WT; pseudo-wild type; source: E. coli C41, purified (Ni-NTA, thrombin cleavage, Superdex 75)) MPQLNGGGGDDLGANDELISFKDEGEQEEKCSENSSAERDLADVKSSLVNESET | binds | – | – | – | – | –
